Results as given in patent US5977056.
Blank lines part the entries; values can stand above or below the substance they belong to.

Columns and labels:
[1] = target: fibrinogen (species not stated)
[2] = target: fibrinogen (species not stated); remark: listed apart in the source
[3] = target: fibrinogen (species not stated); remark: listed apart in the source
[4] = target: human fibrinogen (in citrated whole blood, plasma or platelet-rich plasma) (human) (UniProt P02671)

Substance: posterior gland hementin (Haementeria ghilianii) (enzyme)
Specific Activity (Units/mg), Stage II material [1]: 11500 Units/mg

Specific Activity (Units/mg), Stage III material [2]: 1400 Units/mg
Substance: anterior gland hementin (Haementeria ghilianii) (enzyme)

Substance: purified hementin (gland of origin not stated for the experiment) (enzyme)
fibrinogenolysis assay: fibrinogen breakdown products on HPLC (RP300-C8) [3]: 90%
deaggregation of pre-formed ADP-induced platelet aggregates (aggregometer) [4]: 3 min
loss of coagulability of platelet-rich plasma with thrombin [4]: 10 min
